What was measured:
[1] = biological target: T1, BAFF-R (B-cell activating factor receptor, TNFRSF13C) (Homo sapiens, UniProt Q96RJ3 Q96RJ3:1-76); experiment: EMSA; about; R-22 used as low-affinity negative control; conditions: tags: ProSpect (Israel), human recombinant; label: 32P
T1 sequence: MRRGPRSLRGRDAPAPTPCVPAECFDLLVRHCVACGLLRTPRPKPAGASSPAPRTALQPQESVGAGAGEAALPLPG
Protocol: (§1) The binding activities of the RNA pools were further confirmed by gel shift assays. Briefly, the BAFF-R protein was serially diluted to the desired concentrations (0˜2560 nM). A constant amount of P³² end-labeled RNA (2 nM) was used. The binding reaction was performed as described above. After incubation, 25 μL of binding reaction was loaded into a 5% non-denaturing polyacrylamide gel. Following electrophoresis the gel was exposed to a Phosphor image screen and the radioactivity was quantified using a Typhoon scanner. The dissociation constants were calculated using non-linear curve regression with a Graph Pad Prism. […] The dissociation constants (Kd) for selected aptamers (R-1, R-2 and R-14) with the target protein were calculated from a native gel mobility shift assay (FIG. 16A).
(§2) Binding affinities were also assessed by flow cytometry (FIG. 28). […] To determine if the bound chimeras were internalized in the BAFF-R expressing cells, out Z-axis confocal microscopy was performed with Jeko-1 cells and CEM control cells incubated with Cy3-labeled transcripts as described above. […] To visualize the nucleus, the cells were stained with the nuclear dye Hoechst 33342 after incubation with Cy3-RNA.

[2] = biological target: T1, BAFF-R (B-cell activating factor …); experiment: EMSA; 8U linker; conditions: tags: ProSpect (Israel), human recombinant; label: 32P
Protocol: as §1
(§3) The binding affinities of the chimeras for BAFF-R protein were assessed by gel shift assay (FIG. 40C and FIG. 49A). […] To determine whether the bound chimera is internalized by BAFF-R expressing cells, real-time Z-axis confocal microscopy was performed (FIG. 41A-C and FIG. 49B). The Cy3-labeled chimeras were successfully internalized into BAFF-R expressing cells (Jeko-1 and Z138) after 5 h post treatment.

[3] = biological target: T1, BAFF-R (B-cell activating factor …); experiment: EMSA; about; UU linker; conditions: tags: ProSpect (Israel), human recombinant; label: 32P
Protocol: as §1, §2

[4] = biological target: T1, BAFF-R (B-cell activating factor …); experiment: EMSA; high-salt binding buffer; about; conditions: tags: ProSpect (Israel), human recombinant; label: 5'-32P or Cy3
Protocol: (§4) Filter binding assays were used to detect the binding affinity of the individual aptamers. The RNA pool was treated with Calf Intestinal Phoshatase (CIP) to remove the initiating 5′-triphosphate and labeled with γ-³²P-ATP by T4 polynucleotide kinase and the end-labeled RNA pool (10 nM) was incubated with BAFF-R protein (100 nM) and a 10-fold molar excess of nonspecific competitor tRNA (100 nM) in the high-salt RNA binding buffer for 30 min. A 50 μL of binding reaction was separated by a pre-wet nitrocellulose filter. After the filter was washed with 2 mL binding buffer, the radioactivity retained on the filter was counted by a multi-purpose scintillation counter (Beckman Coulter).
as §1, with “After incubation, 25 μL of binding reaction was loaded into a 5% non-denaturing polyacrylamide gel.” left out

[5] = biological target: T1, BAFF-R (B-cell activating factor …); experiment: EMSA; parental R-1 in STAT3 chimera comparison; conditions: tags: ProSpect (Israel), human recombinant; label: 5'-32P or Cy3
Protocol: as §1, §3

[6] = biological target: T1, BAFF-R (B-cell activating factor …); experiment: EMSA; high-salt binding buffer (10 mM HEPES pH 7.4, 150 mM NaCl, 1 mM CaCl2, 1 mM MgCl2, tRNA); about; conditions: tags: ProSpect (Israel), human recombinant; label: 5'-32P or Cy3
Protocol: as §4
as §1, with “After incubation, 25 μL of binding reaction was loaded into a 5% non-denaturing polyacrylamide gel.” left out

B1: R-22 D-1 chimera (mixed)
RNA 1: GGAGGACGAUGCGGAUCCUCCGAAGGUCGCGCCAACGUCACACAUUAAGCUUUUGUUCGUCUGCAGACGACUCGCCCGAUUCCACAGAUGUGAAGUUCAUUUCCAA
RNA 2: UUGGAAAUGAACUUCACAUCUGUGGCA
modifications: 2'-F pyrimidines in transcribed aptamer-sense strand
With B1 the Kd [1] was 191 nM.

B2: R-1-STAT3 27-mer OVH chimera (mixed)
RNA 1: GGGAGGACGAUGCGGGAGGCUCAACAAUGAUAGAGCCCGCAAUGUUGAUAGUUGUGCCCAGUCUGCAGACGACUCGCCCGAUUUUUUUUGAGAACGGAAGCUGCAGAAAGAUACGA
RNA 2: GUAUCUUUCUGCAGCUUCCGUUCUC
modifications: 2'-F pyrimidines in transcribed aptamer strand
For B2, the Kd [2] was 35 nM.

B3: R-1 D-2 chimera (CCND1 siRNA design 2) (mixed)
RNA 1: GGGAGGACGAUGCGGGAGGCUCAACAAUGAUAGAGCCCGCAAUGUUGAUAGUUGUGCCCAGUCUGCAGACGACUCGCCCGAUUUGUGCCACAGAUGUGAAGUUCAUUUCC
RNA 2: AAAUGAACUUCACAUCUGUGGCACA
modifications: 2'-F pyrimidines in transcribed aptamer-sense strand
Work on B3 yielded a Kd [3] of 126 nM.

B4: R-14 aptamer (ssRNA)
RNA: GGGAGGACGAUGCGGAUAACUAUUGUGCUAGAGGGCUUAUUUAUGUGAGCCGGUUGAUAGUUGCGCAGACGACUCGCCCGA
modifications: 2'-F pyrimidines (2'-F-C, 2'-F-U)
B4 was tested, and the Kd [4] was 96 nM.

B5: R-1-STAT3 27-mer SWAP chimera (mixed)
RNA 1: GGGAGGACGAUGCGGGAGGCUCAACAAUGAUAGAGCCCGCAAUGUUGAUAGUUGUGCCCAGUCUGCAGACGACUCGCCCGAUUUUUUUUUCAGUCGUAUCUUUCUGCAGCUUCCGU
RNA 2: GGAAGCUGCAGAAAGAUACGACUGA
modifications: 2'-F pyrimidines in transcribed aptamer strand
Work on B5 yielded a Kd [2] of 56 nM.

B6: R-14 D-1 chimera (mixed)
RNA 1: GGGAGGACGAUGCGGAUAACUAUUGUGCUAGAGGGCUUAUUUAUGUGAGCCGGUUGAUAGUUGCGCAGACGACUCGCCCGAUUCCACAGAUGUGAAGUUCAUUUCCAA
RNA 2: UUGGAAAUGAACUUCACAUCUGUGGCA
modifications: 2'-F pyrimidines in transcribed aptamer-sense strand
With B6 the Kd [3] was 80 nM.

B7: R-1 aptamer (ssRNA)
RNA: GGGAGGACGAUGCGGGAGGCUCAACAAUGAUAGAGCCCGCAAUGUUGAUAGUUGUGCCCAGUCUGCAGACGACUCGCCCGA
modifications: 2'-F pyrimidines (2'-F-C, 2'-F-U)
In the case of B7, the Kd [5] is reported as 54 nM and the Kd [6] is reported as 47 nM.

B8: R-14 D-2 chimera (mixed)
RNA 1: GGGAGGACGAUGCGGAUAACUAUUGUGCUAGAGGGCUUAUUUAUGUGAGCCGGUUGAUAGUUGCGCAGACGACUCGCCCGAUUUGUGCCACAGAUGUGAAGUUCAUUUCC
RNA 2: AAAUGAACUUCACAUCUGUGGCACA
modifications: 2'-F pyrimidines in transcribed aptamer-sense strand
For B8, the Kd [3] was 73 nM.

B9: R-1 D-1-Mutated chimera (mixed)
RNA 1: GGGAGGACGAUGCGGGAGGCUCAACAAUGAUAGAGCCCGCAAUGUUGAUAGUUGUGCCCAGUCUGCAGACGACUCGCCCGAUUCUCCAGAUUCCAAGCACAUUGUGAA
RNA 2: UUCACAAUGUGCUUGGAAUCUGGAGCA
modifications: 2'-F pyrimidines in transcribed aptamer-sense strand
B9 gave a Kd [3] of 51 nM.

B10: R-1 D-1 chimera (CCND1 siRNA design 1) (mixed)
RNA 1: GGGAGGACGAUGCGGGAGGCUCAACAAUGAUAGAGCCCGCAAUGUUGAUAGUUGUGCCCAGUCUGCAGACGACUCGCCCGAUUCCACAGAUGUGAAGUUCAUUUCCAA
RNA 2: UUGGAAAUGAACUUCACAUCUGUGGCA
modifications: 2'-F pyrimidines in transcribed aptamer-sense strand
In the case of B10, the Kd [3] is reported as 66 nM.
